Assay: soluble fraction after stress (log2 fold change); higher = more stays soluble; pooled small domains, quantitative proteomics
Settings: stress: 75 degC
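Note: 20 min heating vs room temperature control held 20 min.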

Row | Sequence | soluble fraction (log2)
1 | HMSRYLLPYAFARTQQVLLEEKSGELTLWMHSGSNLGGISEVTRKYAVQHVTHEPMDALLNRISSAYAN | -3.34
2 | HMTQGRVTGDGVNVRSQPNTDSAILTRVSTGKVVELISLKDNWYNVVVNGTKGYIRADYVSPYDG | -0.904
3 | HMFLTPLEETRLAIEEVVIAKNIAIDLFPRESAIRKQQHELIYHYHLKGLTVGTEKNKRLRIFPRGY | 0.0279
4 | HMSLEEQNGAKDRQVEAYELLLKAQRALDQEDTAGFQAAMKDLEPLSSQLDAQGQTLYHELLPFVS | -0.232
5 | HMKPAFTPYVVKVTADVLNVRSGPGTNYGITTKVKKGEAYTIVEEKNGWGKLKSGAGWISLEYTVK | -1.09
6 | HMSVSEAELAEKYHADDLEALKSGKLHEFQENLIDRNGKKYTVQTMKDILTLSDGTRLLLGIGLD | 0.131
7 | HMDKSNEVLMNHYRKQEINQAKKRLEEEKMSIIQVLQLTNKEVITTDELLEALYISKEQLLDEIINTTQ | -0.354
8 | HMAETLLWADAAQEGLNRIVAAQPILVRISAAKRLRDASEQAAKAAGVSTVEIGHVQHASESLQFGDA | 0.0809
9 | HMTDLNDTQIKILELLSADASLSAAKMAGQLGIAGRNVEANIKKLKEKGILIRHGSPKSGYWEIVN | -0.349
10 | HMDPDARQDAEVWLLDFLSAGPRTAQEIFTAARVEGHTRVTVKRAKATAGIQSVKQDFDGPWVWVLPGSG | -0.455
11 | HMQNLSELAYVNLRDALMQGQMKPGEELPLRPISRSFGISATPMREALLRLVTESALEMDSRGRISVP | -0.347
12 | HMDSEKVLTNLKEELVLQLSNIEPYGYVPSQYWYSKVQRVQSVQELGKYVDGDLEAFVMKYAEDWESQK | -0.115
13 | HMGASVGEVESVKTASEIYTAAAGKIVAVNDAVAKDPSLVNSDPYGNGWLVKLEIADLSAINA | 0.0161
14 | HMKDLTIRQQQFLNYIKDHLSLTGFPPTRSDIANEMGFKSPNAAEDHLRALARKGAIEIVPGTSRGIRLP | -0.419
15 | HMSNHYETLGVEQTASVDEIKKAYRRLSLQYHPDRNTTSDAVGKFQKINDAHEILSDKQSRTEYDMQLK | 0.0273
16 | HMSVFTDIYHQADHETKLMLIHEIKIVGDEKEFRLLKSIIDSTSNDLSKEANDALNAIKIRLALSK | -2.34
17 | HMNVPFGFDEVNGKLVKNEEEQAIISEIKSLKNKGLSLRKIAEALNGRGIATKNGKAWTAVQIQRIA | -0.318
18 | HMKYTVKSPLPGVIMSVLVKVGDTVKASDTVISLEAMKMENAIHAGRDGKVTSIDVNVGDSVLEGHTLVTI | -0.594
19 | HMDEPGTGFKWREDVLLRVMEANGIDTSHRDDFVRHAVKFDNDDNLYLKKAEIEDAAAAWVSEHS | 0.161
20 | HMNIEIIEVQEESTPSEISKIISTESTKIIEDLLNLGVMASLETPLKNQDIEKLLEGYGYIVDIKP | 0.0251
21 | HMDSVEMFSPILGMNANMDLDTLTQTRDKLLEKYKDDEQLIGLVNKTYDYFNEILLKQFLIEELEKNE | 0.0898
22 | HMSGSPREQAESEYRKAIAAVNQGRVSEATESLRAALRLDAFQVAARQLLVKLLLEAKNQDEAIQVLR | -0.986
23 | HMGGKWKPIILYYININSVARYSELKRFIPSINERMLTRQLRELEEDNLIERKVYPIVPPKVEYRLTEYGK | -0.179
24 | HMEEKEIGQTLSVKIRENVLSKLDMTRDLEDEEVKHIIEHEIWLAAKKHYISLEERNSIKRGIFNSL | -0.895
25 | HMSKPILSFVDPEKDPSHYVKRYITEETYKDWFSEHFPDYTLYEGIGITQEEYRNIVNELTKP | -0.5
26 | HMETKVIVPKVTGMNSKSAINYLSARGLKYKAVPADSGKSFHVVDQYPKSGTKVSPHSTVYLYS | 0.114
27 | HMKSKNILLGEYKGKEVHVGEGKYGPFILYDKKFKSIGAYLTENSLMLKDLTIEDYSKIMKFTENSNSKS | -0.91
28 | HMGKNISEEDMLGYFKKIDLDYDAETKEVIAPTFRHDLFRLADLAEEVARFFGYDNIPTTLPSGEAT | 0.185

Row | Sequence | soluble fraction (log2)
29 | HMPLQYRLTVQPTPTNARVRLVNSAFTYRPGVALPPGSYIVEVSSSGYGAKRQAVQIADGDVTVPVELEKI | -0.582
30 | HMTNALDMMKTMDSDAYTKYQKISKESSNEDRQLNELKYITNWYAGAVKKNPSMVDDYEKQKEADS | 0.302
31 | HMHDITPAVAETFKQLRAERGLSLSQAAQLTGVSKAMLGQIERGQSSPTVSTLWKIATGFNVAFSVFL | -2.56
32 | HMGVKIELNENEQAIFAAMQKQVEAVLPDLRAQFADMSNKAWDNSVKTLTKNNLLKVSKEAEILFIRL | -0.939
33 | HMQNPYDTLGVSRDSTDAEIKKAYRKLAMEHHPDKGGDSQRFAEINNAYDNIKDMSSRQNFENDPSNFQ | 0.266
34 | HMLVDWNYLEGKRGVTTTPLTPSGKARFGDDVVNVLSDGVLVSTGTPVRVLQVLGNRVLVEPLDG | -0.21
35 | HMSQSLSGWAAKDLEVKSGADASYRTVGRLPKGSKVSGKIINGYLHIEFDGSMRYVPVSGISKTE | -0.6
36 | HMTPQDYEYLRKLLKDQSGLDLSVDKQYLLESRLVPLSRKAGLAGIPELVQKMKAGSASLTAQVVEAMTT | -0.11
37 | HMKAFTKKELQDLVLNIFRASPTTNYNYKQLYKLIRGKDPEIKTLIIAVLLGLEKNGSILQMRPGKYKFS | 0.97
38 | HMTGVEAIERYLASGVIPGVGPVLAKRLVERFGARTLEVIEDSPRRLTQVPGIGRQKARQIHQALKAQRE | -0.406
39 | HMKRSFGSVRQLRSGNYQARYTGPDTVRHTSPVTYTSKMDAEAWLVDERRKISSGTWTPPAR | -0.193
40 | HMQVPFGFQRNPSTGTLEEKAEEQLIINQVLSLKNSGIGVSEISKRLGELSVSRIYRIINTAKKNAS | -0.812
41 | HMNLGNLAYESKVTKQVLNMIRPLHPEYSSDDITRAVKEILSEEGSRQRRVDEIARGALDVLMGNPR | 0.0661
42 | HMSEVPVLVAKTDIKELELIDDRKVTLINVPQKFKMPGSFNSPEEVYNTIAAVPIKEGEQITKPRVTWP | 0.0951
43 | HMAVENTGLSKRELEILQMMARGMSNQEIGDALFISLSTVKTHVASIFSKLQAVRRTQAVGIAKSLKII | -2.91
44 | HMLELTVSDKMARLMAWRNRRRVNLSDQELHRIAAAPKQSPESILKMLPGFLQDSVPEIWAELTGGRP | -1.24
45 | HMAITVPEGATLSDAAVLLKQAGAVRSADAFLTRAKVFGGSTPIKAGEFVIPVQASNKDILAILQGGK | 0.0742
46 | HMHVSIAENIRRIRTQHDMTQEEFGKVAAVSAMAVSQWENGRAVPRMGAVQRIADYFNISKGEVID | -0.699
47 | HMGGKWSMPIIYILSKGKMRFKELERSVEGINTRMLVKELKNMEANGIVTREVFPTVPPTVEYALT | -0.968
48 | HMGSVHDAATDRIREMILGGQFEPGERLRQDDLATSLGVSTMPVREALRQLQAEGLVVFYPRKGAVVAR | 0.168
49 | HMAADLIGLEARVTLPLTEDQRGFIETSVRGSLVRRAALSASGRLDRGQRVVILRSEGTTLIVDAL | -3.37
50 | HMKDITPASEDQLKAITDLMLKVNGEWSDAFFTFISKKFNHQISSPEQLTTFEANTIIDMLRKKAEG | -0.601
51 | HMVAGPDEPLSDREQGVLDLLAEGLSNKAISKQLGISVATVKSHLSNIYGKLQAENRMQAVARARELGLM | ≥ 1.04
52 | HMKKQLKSEAVADELRRKILSGGFPDKRLPRKDELTEYFQVSQKTVEAALKMLTAEGLIRGVKGTGIFVNG | -0.703
53 | HMETVSFNPDIAVIPDYRHVVILGETTKTIANKYDIPVDILKAANPGLGNNVTKGDRLRVPDKTKLQ | 0.00398
54 | HMFGEDNLKSKEIKERVTEVAKHADDPVWIEARRKWKDENPDQNVKDYQQAYISGRIHELPWDVSYI | 0.117
55 | HMVSFSIDEALVSAVKGPRSANVMSIQRQFLVRLSVERDGRVTITGANSKSVQQAREAVEAAVEEAKLHP | -2.96

Source: the domain aggregation screens of Martell et al. (2025)
